In patent US20080242587A1 one finds Kd data, which are given here for two substances.

A word on the Kd: it is the equilibrium constant for the complex coming apart. Read a low Kd as a tighter complex.

In experiment [1] the target is VEGF-A165 (produced from CHO cell) (UniProt P15692). The experiment in a line: ELISA titration (0-3 nM), VEGF-A coated, anti-human Fc-HRP. (In general: ELISA stands for enzyme-linked immunosorbent assay.)
Experiment [2] deals with Ang2 (produced from CHO cell) (UniProt O15123). The experiment can be described thus: ELISA titration, Ang2 coated, anti-human Fc-HRP.
Chain of UniProt O15123 (O15123 19-496 limits assumed): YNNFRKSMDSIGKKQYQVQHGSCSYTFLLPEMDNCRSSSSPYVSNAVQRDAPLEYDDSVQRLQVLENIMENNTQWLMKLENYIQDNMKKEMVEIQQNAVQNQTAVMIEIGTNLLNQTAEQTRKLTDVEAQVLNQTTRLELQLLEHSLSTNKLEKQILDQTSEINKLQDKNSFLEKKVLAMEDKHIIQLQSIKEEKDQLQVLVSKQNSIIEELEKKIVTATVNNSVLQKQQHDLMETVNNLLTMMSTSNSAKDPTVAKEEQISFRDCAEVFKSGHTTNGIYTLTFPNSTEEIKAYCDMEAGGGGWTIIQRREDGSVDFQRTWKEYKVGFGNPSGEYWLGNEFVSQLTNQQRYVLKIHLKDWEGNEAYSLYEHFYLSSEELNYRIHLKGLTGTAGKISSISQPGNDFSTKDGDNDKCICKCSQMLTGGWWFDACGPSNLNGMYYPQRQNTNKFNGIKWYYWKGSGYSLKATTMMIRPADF

Chain of UniProt P15692 (P15692 other isoform, or with tags, fused parts or gaps limits assumed): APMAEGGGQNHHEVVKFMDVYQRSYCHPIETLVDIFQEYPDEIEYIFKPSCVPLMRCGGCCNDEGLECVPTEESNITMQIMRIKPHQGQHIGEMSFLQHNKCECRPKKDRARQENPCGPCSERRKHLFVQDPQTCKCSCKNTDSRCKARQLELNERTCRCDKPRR

For VEGF-trap (Fc fusion), the Kd in experiment [1] is 0.001 nM.

In turn, Tie2-Fc (Fc fusion) displayed a dissociation constant Kd in experiment [2] of 50 nM.
